Measured values from patent US20260069536A1, “COMPOSITIONS, SYSTEMS, AND METHODS FOR DELIVERY OF THERAPEUTICS” (THE JOHNS HOPKINS UNIVERSITY, priority 2022, published 2026).
Square brackets hold non-standard residues; d marks the D form. Ends that are not written are not given here. Nva = CCC[C@H](N)C(=O)O

How the values were obtained:
[1] = Release of Ani2-NLCs from peptide gels in the absence of enzyme; assay type: physicochemical
Description: (§1) Preliminary experiments were conducted on the proteolytic stability of the peptides and the impact on the release of the encapsulated NLCs. To investigate protease-mediated release, comparative release rates of Ani2-NLCs were studied with respect to nVET2 and IVET1 gels in trypsin-rich and MMP12-rich environments. Ani2-NLCs are retained within the gels over extended periods of time due to their negative zeta potential that allows them to bind to the positively charged gel network.
(§2) Upon trypsinization, both IVET1 and nVET2 gels show faster release rates of Ani2-NLCs than those observed in the absence of the protease. […] These relative release trends of IVET1 and nVET2 gels are somewhat consistent with the degradation of the individual peptides by trypsin and MMP12. Trypsin hydrolyzes proteins at the carboxyl side of lysine and arginine amino acid residues and as such, the peptides IVET1 and nVET2 contain six cleavable sites with respect to trypsin. On the other hand, MMP12 recognizes a single cleavage site (PLG↓VR) within each of the peptide sequences. Thus, the observed rate of release of the NLCs is proportional to the number of protease-specific cleavage sites within the peptide sequence
At the end of 10 days, less than 20% of Ani2-NLCs were released in the absence of enzyme. Thus, two distinct release regimes of tofacitinib are attainable with simultaneous incorporation of the drug as microcrystalline deposits and as Tofa-NLCs.

[2] = Release of microcrystalline tofacitinib from peptide gels (UV-Vis); assay type: physicochemical; settings: 32 mM microcrystalline deposits, after 10 days
Description: The release rates of microcrystalline tofacitinib from select peptide gels (MAX8 and HLT2) was determined as in Majumder, P., et al., Small 2020, 16, 2002791, incorporated herein by reference (FIG. 18A). As such, the release rates were established for the enzyme cleavable peptides (nVET1 and IVET1) at two different drug loads—16 mM and 32 mM. The release of tofacitinib was quantified using UV-Vis spectroscopy (λ=285 nm). […] The release profile is thus dependent on the final concentration of drug loaded and consistent with crystal dissolution being rate-determining.

trypsin = experiment: Protease-mediated release of NLC from peptide gels, trypsin; assay type: physicochemical; settings: first 24 hours; for increase in release rate upon trypsinization: relative to absence of protease; for Ani2-NLCs released: with trypsin
Description: FIGS. 10A and 10B show protease responsive LNp release. […] FIG. 10B is a graph of the release profiles of Ani2-NLC from Peptide-4 gels in response to trypsin.
IVET2—SEQ ID NO: 7; IVET1—SEQ ID NO: 8; nVET2—SEQ ID NO: 9; nVET1—SEQ ID NO: 10.
as §1, §2

MMP12 [3] = target: T1, MMP12 (Homo sapiens, UniProt P39900); experiment: Protease-mediated release of NLC from peptide gels, MMP12; assay type: physicochemical; settings: MMP12 treated gels
Description: as §1, §2

MMP12 [4] = target: T1, MMP12; experiment: Rheology of MMP12-treated peptide gels; assay type: physicochemical; settings: 150 ul, 1 wt % gels, 37° C., MMP12, 1×HBS pH 7.4, 12 days
Description: To provide further insight into the mechanistic effects of the gel release rates described above, the rheological properties of the MMP12-treated peptide gels were investigated. For this study, pre-formed IVET1 gels (150 ul, 1 wt %) were incubated at 37° C. with MMP12 (1×HBS, pH 7.4) and the storage modulus at 6.3 rad/s (obtained from frequency sweep measurements) was plotted at different time points for each gel. […] Despite peptide cleavage, the gels remained intact due to the stable cross-linked fiber network supported by the inter-hairpin hydrophobic contacts of the peptides upon self-assembly.

[5] = system: full MHC mismatch (C57BL/6 to BALB/c) mouse heart transplantation model; experiment: Mouse heart transplantation model, systemic Tofa with CTLA4-Ig; assay type: in vivo
dendritic cells = experiment: Maturation of dendritic cells under Tofa; assay type: cell-based
Treg = experiment: Suppressive activity of Treg under Tofa; assay type: cell-based
[6] = system: mouse heart transplant model; experiment: Mouse heart transplant model, localized Tofa hydrogel with CTLA4-Ig; assay type: in vivo; settings: localized release around the transplanted heart, single administration
Source text: FIG. 3A is a schematic of localized delivery of Tofacitinib (Tofa) microcrystals from a hydrogel (MTH) implanted in mice receiving heterotopic heart transplant. FIG. 3B is survival curves of C57Bl/6 mice receiving BALB/c heart transplants under the indicated treatments.
A peptide hydrogel (MAX8) that self-assembles at physiological conditions and encapsulated crystalline Tofa (cJAKi-Hydro) was used to assess that the localized release of a JAKi (Tofa) around the transplanted heart would have synergism with CTLA4-Ig as systemic Tofa administration (FIG. 3A).

[7] = Gel stiffness (storage modulus G′) after NLC encapsulation; assay type: physicochemical; settings: following encapsulation of neutral or negatively-charged NLCs
Source text: FIGS. 6A-6C show LNp encapsulation in a hydrogel. FIG. 6A is a graph of the comparative storage moduli (G′) of MAX8 gels with and without Neut-NLCs and Ani2-NLCs. FIG. 6B is a graph of the cumulative release profiles of Neut-NLC and Ani2-NLC from MAX8 gels. FIG. 6C is an image of LNp retention by MAX8 gels. A lipophilic dye (pink) was encapsulated within the NLCs to quantify release after 5 days.
To improve particle retention within the gel, the nanoparticles were modified to achieve a slightly negative surface charge (the hydrogel network is positively charged) by adding a small percentage of anionic surfactant (Glycolic Acid Ethoxylate Oleyl Ether) together with the Gelucire 44/14. Two different ratios of these surfactants were used until similarly sized nanoparticles were achieved.

[8] = Hydrogel toxicity after SQ injection in skin flap; settings: SQ injection after flap raise, visual monitoring
Description: To this end, the condition of transplants was replicated by surgically separating the skin of the prospective area of injection (flap raise) followed by suturing the edges. After completion of the surgical procedure, empty hydrogel or Tofa containing hydrogel was injected SQ and the area monitored visually for any macroscopic sign of toxicity.

[9] = absence of enzyme, end of 10 days
[10] = absence of trypsin (control gel), first 24 hours

T1 sequence (P39900 106-470, species assumed): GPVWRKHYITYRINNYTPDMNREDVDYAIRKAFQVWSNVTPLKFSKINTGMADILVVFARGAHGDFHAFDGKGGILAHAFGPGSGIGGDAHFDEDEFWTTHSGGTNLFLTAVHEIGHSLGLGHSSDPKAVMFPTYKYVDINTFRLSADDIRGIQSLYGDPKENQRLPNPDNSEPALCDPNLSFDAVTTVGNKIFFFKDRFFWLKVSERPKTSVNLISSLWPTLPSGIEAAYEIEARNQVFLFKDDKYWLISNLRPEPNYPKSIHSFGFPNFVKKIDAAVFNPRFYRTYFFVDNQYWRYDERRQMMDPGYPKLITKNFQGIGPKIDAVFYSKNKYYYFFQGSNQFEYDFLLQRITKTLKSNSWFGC

Molecule | Ani2-NLCs released [1, 9] | drug release [2] | increase in release rate upon trypsinization (trypsin) [fold] | Ani2-NLCs released (trypsin) [%] | release rate of Ani2-NLCs (MMP12 [3]) | Ani2-NLCs released [1, 10] [%] | further results
(nV)K(nV)E(nV)KVKV^DPPLGVRTK(nV)K(nV) ([Nva]K[Nva]E[Nva]KVKVPPLGVRTK[Nva]K[Nva]; also: P10 written ^DP (meaning not given here)) [nVET1] | less than 20% | less than 60% | – | – | – | – | –
(nV)KTE(nV)KVKV^DPPLGVRTK(nV)K(nV) ([Nva]KTE[Nva]KVKVPPLGVRTK[Nva]K[Nva]; also: P10 written ^DP (meaning not given here)) [nVET2] | – | – | 3 | 30 | intermediate between their respective trypsin-rich and protease-free gel environments | 10 | –
IKVEIKVKV^DPPLGVRTKIKV (IKVEIKVKVPPLGVRTKIKV; also: P10 written ^DP (meaning not given here)) [IVET1] | less than 20% | less than 60% | ~12 | 17.4 | intermediate between their respective trypsin-rich and protease-free gel environments | 1.5 | storage modulus at 6.3 rad/s (MMP12 [4]): relatively stable storage modulus
C[C@@H]1CCN(C(=O)CC#N)C[C@@H]1N(C)c1ncnc2[nH]ccc12 [Tofa, 3-((3R,4R)-4-methyl-3-(methyl(7H-pyrrolo[2,3-d]pyrimidin-4-yl)amino)piperidin-1-yl)-3-oxopropanenitrile] | – | – | – | – | – | – | differentiation of TH1 effector T cells ([5]; Tofa+CTLA4-Ig): inhibition of the differentiation of TH1 effector T cells; regulatory T cells (Treg) ([5]; Tofa+CTLA4-Ig): accumulation of a high frequency of regulatory T cells; graft survival with ischemic hearts ([5]; Tofa+CTLA4-Ig, hearts kept ischemic for 4h before transplantation): improvement in survival was unaffected; graft survival ([5]; combination with CTLA4-Ig, Tofa POD-1 to POD6, twice daily via oral gavage): promoted long-term graft survival; up-regulation of MHC-II molecules (dendritic cells; dendritic cells): did not prevent the up-regulation of MHC-II molecules; maturation of dendritic cells (dendritic cells; upregulation of costimulatory molecules and secretion of pro-inflammatory cytokines): very effective at preventing the maturation of dendritic cells; suppressive activity of Treg (Treg): only minimally affected the suppressive activity of Treg; graft survival [6]: as effective at synergizing with systemic CTLA4-Ig as 16 oral gavage administrations
VKVKVKVKV^DPPTKVEVKVKV (VKVKVKVKVPPTKVEVKVKV; not fully specified (residue 10)) [MAX8] | – | – | – | – | – | – | gel stiffness [7]: stiffness is maintained; macroscopic sign of toxicity [8]: absence of any evidence of toxicity
